Results: patent US20220372155A1 (LYVGEN BIOPHARMA, published 2022)

Assays:
[1] = target: T1, human CD40 expressed on CHO cells (human, UniProt P25942 21-277); experiment: FACS, CHO cells
T1 construct: whole, on cells; also used for the reporter cells over-expressing human CD40; also called cellular CD40; CHO-CD40 cells

[2] = target: T2, human PD-L1 expressed on CHO cells (human, UniProt Q9NZQ7 19-290); experiment: FACS, CHO cells
T2 construct: whole, on cells; also used for human PD-L1 on Raji cells in the reporter assay; also called cell surface PD-L1; Raji-PD-L1 cells

[3] = target: T3, Ly090 (human CD40 ECD protein with His tag) (human, UniProt P25942 21-193); experiment: bridging ELISA, coated CD40 ECD-His, soluble PD-L1 ECD-mFc
T3 construct: extracellular domain; also called human CD40 ECD protein (His tag); recombinant human CD40; not shown: His tag

[4] = target: T4, Human PD-L1 ECD protein (mouse IgG2a Fc tag) (human, UniProt Q9NZQ7 19-238); experiment: as above
T4 construct: extracellular domain; also called recombinant human PD-L1; not shown: mouse IgG2a Fc tag

Measured: binding result

T1 sequence (P25942 21-277): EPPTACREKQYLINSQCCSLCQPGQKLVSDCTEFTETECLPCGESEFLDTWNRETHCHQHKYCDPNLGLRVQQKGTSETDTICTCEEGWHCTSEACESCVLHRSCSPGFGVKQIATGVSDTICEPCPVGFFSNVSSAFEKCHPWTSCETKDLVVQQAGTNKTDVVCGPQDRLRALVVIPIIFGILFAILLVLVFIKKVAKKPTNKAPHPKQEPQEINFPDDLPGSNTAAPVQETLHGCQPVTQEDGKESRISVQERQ
T2 sequence (Q9NZQ7 19-290): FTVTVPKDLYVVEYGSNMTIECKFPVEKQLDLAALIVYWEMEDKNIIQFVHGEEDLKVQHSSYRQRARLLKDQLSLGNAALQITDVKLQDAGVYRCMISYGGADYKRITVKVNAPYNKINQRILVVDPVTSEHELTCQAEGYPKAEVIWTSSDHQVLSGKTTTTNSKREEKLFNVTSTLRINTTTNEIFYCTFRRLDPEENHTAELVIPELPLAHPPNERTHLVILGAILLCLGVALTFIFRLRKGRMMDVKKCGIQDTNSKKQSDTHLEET
T3 sequence (P25942 21-193): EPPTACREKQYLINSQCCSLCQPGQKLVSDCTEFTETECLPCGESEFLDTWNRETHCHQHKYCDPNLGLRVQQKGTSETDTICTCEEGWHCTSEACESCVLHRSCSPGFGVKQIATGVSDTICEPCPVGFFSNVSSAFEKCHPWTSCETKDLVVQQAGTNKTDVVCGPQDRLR
T4 sequence (Q9NZQ7 19-238): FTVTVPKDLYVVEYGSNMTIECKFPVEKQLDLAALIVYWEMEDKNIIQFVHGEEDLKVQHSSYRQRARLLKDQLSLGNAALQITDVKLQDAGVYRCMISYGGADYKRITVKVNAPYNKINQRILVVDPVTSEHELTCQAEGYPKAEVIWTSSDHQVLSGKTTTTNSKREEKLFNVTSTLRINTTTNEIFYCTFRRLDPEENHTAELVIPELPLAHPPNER

B1: Ly349 (bispecific antibody, human IgG1, kappa)
heavy: QVQLVQSGAEVKKPGASVKVSCKASGYTFTDFWMSWVRQAPGQGLEWMGQIYPNTGTTHSNEKFKGRVTMTRDTSTSTVYMELSSLRSEDTAVYYCARSYHISTTPNWFAYWGQGTLVTVSSASTKGPSVFPLAPSSKSTSGGTAALGCLVKDYFPEPVTVSWNSGALTSGVHTFPAVLQSSGLYSLSSVVTVPSSSLGTQTYICNVNHKPSNTKVDKKVEPKSCDKTHTCPPCPAPELLGPSVFLFPPKPKDTLMISRTPEVTCVVVDVSHEDPEVKFNWYVDGVEVHNAKTKPREEQYNSTYRVVSVLTVLHQDWLNGKEYKCKVSNKALPAPIEKTISKAKGQPREPQVYTLPPSREEMTKNQVSLTCLVKGFYPSDIAVEWESNGQPENNYKTTPPVLDSDGSFFLYSKLTVDKSRWQQGNVFSCSVMHEALHNHYTQKSLSLSPG
light: DIQMTQSPSSLSASVGDRVTITCKASQNVYKKLEWYQQKPGKVPKVLIYHTNILQTGVPSRFSGSGSGTDYTLTISSLQPEDVATYYCYQWNSGPTFGGGTKVEIKRTVAAPSVFIFPPSDEQLKSGTASVVCLLNNFYPREAKVQWKVDNALQSGNSQESVTEQDSKDSTYSLSSTLTLSKADYEKHKVYACEVTHQGLSSPVTKSFNRGECGGGGSGGGGSGGGGSGGGGSDIQMTQSPSSLSASVGDRVTITCKASQNIYIYLNWYQQKPGKAPKLLIYNTNNLQTGVPSRFSGSGSGTDFTLTISSLQPEDFATYYCLQHSSRRTFGGGTKVEIKGGGGSGGGGSGGGGSGGGGSQVQLVESGGGLVQPGGSLKLSCATSGFNFNDYFMNWVRQASGKGLEWVGQIRNKNYNYATYYTESLEGRVTISRDDSKNTAYLQMNSLKTEDTAVYYCTSYYYDGFADYFDYWGQGTTVTVSS
notes: Ly076 HC (IgG1 mutated Fc) + Ly076 LC-TM740 scFv VL-VH
binds: all assays above

B2: Ly339 (bispecific antibody, human IgG1, kappa)
heavy: B1 heavy
light: DIQMTQSPSSLSASVGDRVTITCKASQNVYKKLEWYQQKPGKVPKVLIYHTNILQTGVPSRFSGSGSGTDYTLTISSLQPEDVATYYCYQWNSGPTFGGGTKVEIKRTVAAPSVFIFPPSDEQLKSGTASVVCLLNNFYPREAKVQWKVDNALQSGNSQESVTEQDSKDSTYSLSSTLTLSKADYEKHKVYACEVTHQGLSSPVTKSFNRGECGGGGSGGGGSGGGGSGGGGSQVQLVESGGGLVQPGGSLKLSCATSGFNFNDYFMNWVRQASGKGLEWVGQIRNKNYNYATYYTESLEGRVTISRDDSKNTAYLQMNSLKTEDTAVYYCTSYYYDGFADYFDYWGQGTTVTVSSGGGGSGGGGSGGGGSGGGGSDIQMTQSPSSLSASVGDRVTITCKASQNIYIYLNWYQQKPGKAPKLLIYNTNNLQTGVPSRFSGSGSGTDFTLTISSLQPEDFATYYCLQHSSRRTFGGGTKVEIK
notes: Ly076 HC (IgG1 mutated Fc) + Ly076 LC-TM740 scFv VH-VL
binds: all assays above
